This note sets out measurements from US20050249734A1.

Broadly, the Kd is the free concentration of one partner at which half of the binding sites on the other are occupied at equilibrium, for simple one-to-one binding.

Ends that are not written are not given here.

For assay [1], the target named is somatostatin receptors on GH4 pituitary cells. In words: cell-based or functional assay.
The target is the same in assay [2]. In words: displacement of 125I-somatostatin-14 from GH4 pituitary cells. On the technique in general: In a radioligand displacement assay an active substance lowers the binding of a labelled ligand.

In the case of “somatostatin-14 peptide (from UniProt P61278 103-116)”, in assay [1], the inhibition of TRH-stimulated cAMP in GH4 cells came out at 10 nM and the inhibition of VIP-stimulated cAMP in GH4 cells was 50 % at 10^-6 M. The molecule also had a Kd in assay [2] of 5 nM.
As for PCKNFFWKTFSSCK-NH2 (cysteine pairing not given here) [cortistatin-14 peptide], in assay [1], the inhibition of TRH-stimulated cAMP in GH4 cells worked out at 10 nM and the inhibition of VIP-stimulated cAMP in GH4 cells was 50 % at 10^-6 M. In assay [2], this molecule came in with a Kd of 5 nM.
